Assay results reported in article PMC10663500, “High-throughput analysis system of interaction kinetics for data-driven antibody design” (Scientific Reports, 2023).

How the values were obtained:
[1] = biological target: T1, mouse programmed cell death protein 1 Fc fusion protein (mPD-1-Fc), mPD-1 C60S (aa 25-167) (Mus musculus, UniProt Q02242, stabilised); experiment: SPR; Carterra LSA; Fab from the ammonium sulfate precipitate of the culture supernatant immobilised on a NiHC200M chip; hPD-1 (1-1024 nM) or mPD-1-Fc (4-1024 nM) as analyte, fourfold dilution series, no regeneration; HBS-EP pH 7.4, 25 °C; medians over the spots of a construct, KD = koff/kon; details: one partner purified
T1 construct: not cleaved; source: Expi293F, purified (Protein A, SEC; dimeric fraction); not shown: Fc (human), C-terminal, kept
Summary of the method: (§1)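 Fabs from Brevibacillus culture supernatants were ammonium sulfate-precipitated, redissolved in HBS-EP and captured in duplicate on a NiHC200M chip (Carterra LSA, 25 °C). Human PD-1 (1–1024 nM) or mouse PD-1-Fc (4–1024 nM) flowed as fourfold series without regeneration, with 10 min association and 5 min dissociation; unconfirmed binders were set to kon 10^3 […], koff 10^−2 s^−1. Rates came from kdka model fits (slow- or fast-dissociation settings, best fit); KD is koff/kon from per-construct medians.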

[2] = biological target: T2, human programmed cell death protein 1 (hPD-1) C93S (aa 24-167) (Homo sapiens, UniProt Q15116, C93S); experiment: as above; details: one partner purified
T2 construct: made as a fusion with a TEV site and human Fc; the Fc was cut off with TEV protease; source: Expi293F, purified (Protein A, TEV cleavage of Fc, SEC; monomer fractions); not shown: Fc (human), C-terminal, cleaved
Summary of the method: as §1

T2 sequence (Q15116 24-167 C93S): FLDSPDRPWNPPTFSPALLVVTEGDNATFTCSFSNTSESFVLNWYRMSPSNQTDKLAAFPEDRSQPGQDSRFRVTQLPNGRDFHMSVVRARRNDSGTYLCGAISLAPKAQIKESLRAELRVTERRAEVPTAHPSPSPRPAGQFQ

Binder	Kd [1] [nM]	koff [1] [s⁻¹]	kon [1] [M⁻¹ s⁻¹]	Kd [2] [nM]	koff [2] [s⁻¹]	kon [2] [M⁻¹ s⁻¹]
toripalimab Fab L.V99M (Fab, V domains shown, as the heavy chain of Sm3; light chain of Sm3 with this change; numbers count from the chain's first residue; source: Brevibacillus, culture supernatant (ammonium sulfate precipitate); not shown: 6xHis, C-terminal, kept; 6xHN, C-terminal, kept) VH: QGQLVQSGAEVKKPGASVKVSCKASGYTFTDYEMHWVRQAPIHGLEWIGVIESETGGTAYNQKFKGRVTITADKSTSTAYMELSSLRSEDTAVYYCAREGITTVATTYYWYFDVWGQGTTVTVSS VL: DVVMTQSPLSLPVTLGQPASISCRSSQSIVHSNGNTYLEWYLQKPGQSPQLLIYKVSNRFSGVPDRFSGSGSGTDFTLKISRVEAEDVGVYYCFQGSHMPLTFGQGTKLEIK	590	0.00702	11900	1.43	3.17e-05	22100
toripalimab Fab L.V99N (Fab, V domains shown, as the heavy chain of Sm3; light chain of Sm3 with this change; numbers count from the chain's first residue; source: Brevibacillus, culture supernatant (ammonium sulfate precipitate); not shown: 6xHis, C-terminal, kept; 6xHN, C-terminal, kept) VH: QGQLVQSGAEVKKPGASVKVSCKASGYTFTDYEMHWVRQAPIHGLEWIGVIESETGGTAYNQKFKGRVTITADKSTSTAYMELSSLRSEDTAVYYCAREGITTVATTYYWYFDVWGQGTTVTVSS VL: DVVMTQSPLSLPVTLGQPASISCRSSQSIVHSNGNTYLEWYLQKPGQSPQLLIYKVSNRFSGVPDRFSGSGSGTDFTLKISRVEAEDVGVYYCFQGSHNPLTFGQGTKLEIK	169	0.00665	39400	3.03	5.61e-05	18500
toripalimab Fab L.V99Q (Fab, V domains shown, as the heavy chain of Sm3; light chain of Sm3 with this change; numbers count from the chain's first residue; source: Brevibacillus, culture supernatant (ammonium sulfate precipitate); not shown: 6xHis, C-terminal, kept; 6xHN, C-terminal, kept) VH: QGQLVQSGAEVKKPGASVKVSCKASGYTFTDYEMHWVRQAPIHGLEWIGVIESETGGTAYNQKFKGRVTITADKSTSTAYMELSSLRSEDTAVYYCAREGITTVATTYYWYFDVWGQGTTVTVSS VL: DVVMTQSPLSLPVTLGQPASISCRSSQSIVHSNGNTYLEWYLQKPGQSPQLLIYKVSNRFSGVPDRFSGSGSGTDFTLKISRVEAEDVGVYYCFQGSHQPLTFGQGTKLEIK	445	0.0167	37600	8.06	6.39e-05	7930
toripalimab Fab L.V99S (Fab, V domains shown, as the heavy chain of Sm3; light chain of Sm3 with this change; numbers count from the chain's first residue; source: Brevibacillus, culture supernatant (ammonium sulfate precipitate); not shown: 6xHis, C-terminal, kept; 6xHN, C-terminal, kept) VH: QGQLVQSGAEVKKPGASVKVSCKASGYTFTDYEMHWVRQAPIHGLEWIGVIESETGGTAYNQKFKGRVTITADKSTSTAYMELSSLRSEDTAVYYCAREGITTVATTYYWYFDVWGQGTTVTVSS VL: DVVMTQSPLSLPVTLGQPASISCRSSQSIVHSNGNTYLEWYLQKPGQSPQLLIYKVSNRFSGVPDRFSGSGSGTDFTLKISRVEAEDVGVYYCFQGSHSPLTFGQGTKLEIK	4.51	6.95e-05	15400	< 1.16	< 1e-05	8660
toripalimab Fab L.V99W (Fab, V domains shown, as the heavy chain of Sm3; light chain of Sm3 with this change; numbers count from the chain's first residue; source: Brevibacillus, culture supernatant (ammonium sulfate precipitate); not shown: 6xHis, C-terminal, kept; 6xHN, C-terminal, kept) VH: QGQLVQSGAEVKKPGASVKVSCKASGYTFTDYEMHWVRQAPIHGLEWIGVIESETGGTAYNQKFKGRVTITADKSTSTAYMELSSLRSEDTAVYYCAREGITTVATTYYWYFDVWGQGTTVTVSS VL: DVVMTQSPLSLPVTLGQPASISCRSSQSIVHSNGNTYLEWYLQKPGQSPQLLIYKVSNRFSGVPDRFSGSGSGTDFTLKISRVEAEDVGVYYCFQGSHWPLTFGQGTKLEIK	254	0.0065	25600	45.3	0.000522	11500
toripalimab Fab L.V99P (Fab, V domains shown, as the heavy chain of Sm3; light chain of Sm3 with this change; numbers count from the chain's first residue; source: Brevibacillus, culture supernatant (ammonium sulfate precipitate); not shown: 6xHis, C-terminal, kept; 6xHN, C-terminal, kept) VH: QGQLVQSGAEVKKPGASVKVSCKASGYTFTDYEMHWVRQAPIHGLEWIGVIESETGGTAYNQKFKGRVTITADKSTSTAYMELSSLRSEDTAVYYCAREGITTVATTYYWYFDVWGQGTTVTVSS VL: DVVMTQSPLSLPVTLGQPASISCRSSQSIVHSNGNTYLEWYLQKPGQSPQLLIYKVSNRFSGVPDRFSGSGSGTDFTLKISRVEAEDVGVYYCFQGSHPPLTFGQGTKLEIK	24.7	0.0007	28300	19.8	0.000192	9660
